Experimental data published in patent US20080241125A1 (Dana-Farber, published 2008).
No end group written: not given here.

Target: T1, purified IKKγ (human, UniProt Q9Y6K9 1-419, limits assumed)
T1 construct: also called NEMO
Test: GST pull-down of purified IKKγ with GST-MUC1-CD fragments on glutathione beads, anti-IKKγ immunoblot (FIG. 5C)
Source text: FIG. 5C is a pair of photographs of immunoblots. […] The precipitates were immunoblotted (IB) with anti-IKKγ antibody. […] The molecular weights of proteins (as indicated on the left of the photographs) are expressed as kilodaltons (kDa).

T1 sequence (Q9Y6K9 whole entry): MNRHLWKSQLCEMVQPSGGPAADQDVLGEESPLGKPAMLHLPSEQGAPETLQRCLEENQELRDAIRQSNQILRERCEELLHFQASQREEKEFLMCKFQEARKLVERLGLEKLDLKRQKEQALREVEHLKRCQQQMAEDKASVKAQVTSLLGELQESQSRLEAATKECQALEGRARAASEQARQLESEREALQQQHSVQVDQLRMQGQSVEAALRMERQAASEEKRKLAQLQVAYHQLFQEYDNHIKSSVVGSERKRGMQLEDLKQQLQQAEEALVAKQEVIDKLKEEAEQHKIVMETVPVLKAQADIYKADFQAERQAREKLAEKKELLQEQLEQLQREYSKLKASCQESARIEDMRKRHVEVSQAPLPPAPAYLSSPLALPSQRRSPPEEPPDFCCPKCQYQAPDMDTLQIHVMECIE

binding result: no binding
B1: GST-MUC1-CD(1-45) (other)
chain: CQCRRKNYGQLDIFPARDTYHPMSEYPTYHTHGRYVPPSSTDRSP
modifications: cysteine pairing not given here; also: GST fusion, GST sequence and linker not given here
notes: not shown: glutathione S-transferase (GST) tag
